72 sequences from the supplement of paper PMC10567573 can be followed below.

The data set can be described thus: protein stability index of a GFP-peptide fusion (GPS, HEK-293T) (PSI 1-6); higher = more stable.
The mark [1] stands for this setting: treatment: DMSO, c terminus: a fixed tail appended.
Setting [2] is: treatment: MLN4924 1 uM, 8 h, c terminus: a fixed tail appended.
[3] abbreviates: treatment: DMSO, c terminus: native.
[4] abbreviates: treatment: MLN4924 1 uM, 8 h, c terminus: native.

± gives the standard deviation.
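Note: 24-mer peptide tiles fused after GFP, lentivirally expressed, FACS-sorted into six equal bins by GFP/DsRed ratio, decoded by Illumina sequencing, PSI is the read-weighted mean bin number.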

VHPFVNYNSSRFGEGVERELFVRE [MYORG] displayed a protein stability index under setting [1] of 3.09 ± 0.18 and a protein stability index under setting [2] of 3 ± 0.37.

With SLNMSRRDSESTRHDSETEDMLWD [PHTF1], the protein stability index is, setting by setting: under setting [1], 5.32 ± 0.15; under setting [2], 5.26 ± 0.2.

In the case of MQLKSPMPSSTTQKDSYQPPGNVY [SPAG8], the protein stability index reads like this: under setting [1], 4.13 ± 0.17; under setting [2], 4.14 ± 0.16.

With FAQALGCVLYACFILGRLCVPVFA [SOAT2], the protein stability index is, setting by setting: under setting [1], 3.03 ± 0.6; under setting [2], 2.64 ± 0.55.

On to KLDFKEKAQAKVGSLDNAHHVPGG [MAP2], for which the protein stability index runs as follows: under setting [1], 4.73 ± 0.2; under setting [2], 4.7 ± 0.16.

With EDSKRWSKMDQLAKELTAEKRLEG [CHGA], the protein stability index runs as follows: under setting [1], 4.97 ± 0.33; under setting [2], 5.11 ± 0.26.

Regarding PKQSGSFRYLQGMLEAGEGGDWPG [PDLIM4], the protein stability index reads like this: under setting [1], 3.79 ± 0.34; under setting [2], 3.96 ± 0.15.

In the case of GPFGGFFASGFKRAFKIKDFANTI [CDS1], the protein stability index by setting is: under setting [1], 2.38 ± 0.31; under setting [2], 2.44 ± 1.

Consider FFINEAMELKVGDFGLAARLEPLE [PLK2], for which the protein stability index was 2.61 ± 0.14 under setting [1] and 2.68 ± 0.18 under setting [2].

For LPPKVGSFQLFVEGYKDADYWLRR [PI4K2A], the protein stability index is, setting by setting: under setting [1], 2.41 ± 0.34; under setting [2], 2.46 ± 0.17.

Consider HQPVVRQCGPQTGLQSPGTLQPPE [TBX5], for which the protein stability index was 4.41 ± 0.27 under setting [1] and 4.63 ± 0.12 under setting [2].

Consider SHAIHVEEQSDQSFSSLEPDNEQL [IQUB], for which the protein stability index is, setting by setting: under setting [1], 5.38 ± 0.27; under setting [2], 5.63 ± 0.17.

Take EISKDNSCKENCTCSSCLLRAPTI [EDARADD]: the protein stability index under setting [1] was determined as 4.67 ± 0.29 and the protein stability index under setting [2] was 4.86 ± 0.14.

For AEHMKRQRHPRLRPQSAQSSFPPS [AUP1], the protein stability index by setting is: under setting [1], 4.13 ± 0.12; under setting [2], 4.43 ± 0.25.

For VSDPQHAARLLRALSSFREESRFC [GAN], the protein stability index reads like this: under setting [1], 2.59 ± 0.068; under setting [2], 2.72 ± 0.19.

With AQVDGAAMFAADPKKPIGGNIIAH [RAD51], the protein stability index was 4.23 ± 0.18 under setting [1] and 4.36 ± 0.17 under setting [2].

In the case of DIKRLLVNFMYLQSLLQPKSSSVD [SMG5], the protein stability index stood at 2.97 ± 0.54 under setting [1] and 3.08 ± 0.51 under setting [2].

For PLTGDKDDEEVDTHFASQEFFSAN [ADAMTSL2], the protein stability index worked out at 5.37 ± 0.11 under setting [1] and 5.45 ± 0.19 under setting [2].

For the sequence LIDHLALRARNYEYLIRLFQEWEA [TCF25], the protein stability index reads like this: under setting [1], 2.1 ± 0.27; under setting [2], 2.43 ± 0.36.

Consider NSWMGSQGPMSQRRENYGVPPRRA [RBMY1A1], for which the protein stability index is 4.65 ± 0.26 under setting [1] and 4.28 ± 0.16 under setting [2].

As to ATVPSNMMSVNGQAKTHTDSSEKE [ACBD3], the protein stability index runs as follows: under setting [1], 5.35 ± 0.23; under setting [2], 5.45 ± 0.19.

For the sequence QASKLRASKEEKEDWLSHALSRKK [FBF1], the protein stability index is 4.5 ± 0.24 under setting [1] and 4.54 ± 0.26 under setting [2].

For the sequence YHSPELTTPPGHGTLDNSKSMKPY [NEUROD6], the protein stability index runs as follows: under setting [1], 2.87 ± 0.65; under setting [2], 3.7 ± 0.67.

For SYSTQASAAAATAELLKKQEELNR [SCAMP3], the protein stability index is 4.99 ± 0.19 under setting [1] and 5.03 ± 0.11 under setting [2].

With ECKQLSESQVKSLCEKAKEILTKE [PPP2CA], the protein stability index is, setting by setting: under setting [1], 4.64 ± 0.2; under setting [2], 4.82 ± 0.18.

As for KEIAKNLIQPINHTTLQCLAARVI [FEM1C], the protein stability index came to 2.33 ± 0.5 under setting [1] and 2.33 ± 0.47 under setting [2].

Consider YEKAYEGGSELGGWSLGRWTHDGI [CPXM2], for which the protein stability index was found to be 2.49 ± 0.82 under setting [1] and 2.69 ± 0.16 under setting [2].

Turning to SLAGALGVKFVGLFIILQVGLNTI [POMT2], the protein stability index is, setting by setting: under setting [1], 3.27 ± 0.16; under setting [2], 3.16 ± 1.2.

HENAVQGSAVEVQTYQPPWKALSE [ISL2] yielded a protein stability index under setting [1] of 4.15 ± 0.23 and a protein stability index under setting [2] of 4.02 ± 0.17.

Sequence RRFNFDTDRPLLSTLEESVVRICC [SMG5] yielded a protein stability index under setting [1] of 2.17 ± 0.25 and a protein stability index under setting [2] of 2.19 ± 0.22.

VLCPECENPETDLHVNPKKQTIGN [EIF5] came in with a protein stability index under setting [1] of 4.3 ± 0.3 and a protein stability index under setting [2] of 4.54 ± 0.15.

The sequence SSSSSASSSASSSFSEEGAVGYSS [NFE2L1] gave a protein stability index under setting [1] of 5.25 ± 0.16 and a protein stability index under setting [2] of 5.32 ± 0.13.

Take CESLTYGLPFILRPTSCWQLDWDE [M1AP]: the protein stability index under setting [1] was 2.25 ± 0.15 and the protein stability index under setting [2] was determined as 2.04 ± 0.3.

Take VQKLVKVCTDTDRWSLISLSNKNG [TENT5C]: the protein stability index is 2.64 ± 0.034 under setting [1] and 2.85 ± 0.26 under setting [2].

As for EVLIGAGYSTPADIWSTACMAFEL [SRPK2], the protein stability index under setting [1] was found to be 3.14 ± 1.2 and the protein stability index under setting [2] is 2.61 ± 0.88.

Turning to DLVLDEEGARAAGLGELGAALLQL [ESRRA], the protein stability index was found to be 3.94 ± 0.19 under setting [1] and 4.05 ± 0.17 under setting [2].

In turn, EDSYRKQVEVDAQQCMLEILDTAG [RAP1B] came in with a protein stability index under setting [1] of 4.62 ± 0.13 and a protein stability index under setting [2] of 4.5 ± 0.14.

On to MTVEKEAPDAHFTVDKQNISLWPR [CD207], for which the protein stability index under setting [1] worked out at 3.58 ± 0.36 and the protein stability index under setting [2] worked out at 3.86 ± 0.5.

As for SSYVASIVDGGESRSEKGDSSRY [RBMY1A1], the protein stability index is, setting by setting: under setting [3], 4.35 ± 0.28; under setting [4], 4.27 ± 0.35.

SFFVPRPTPSTPRPTPQDWLHRRA [ADAMTS4]: the protein stability index worked out at 3.4 ± 0.21 under setting [1] and 3.4 ± 0.084 under setting [2].

Regarding EDEAGGRFVAFSGEGQSLRKKGRK [UFD1], the protein stability index reads like this: under setting [1], 5.51 ± 0.25; under setting [2], 5.41 ± 0.46.

Turning to PTMPQPIEKVSVSTQTKKLSASSP [ZMYND11], the protein stability index turned out to be 5.28 ± 0.18 under setting [1] and 5.24 ± 0.25 under setting [2].

Take PPHVLISRPSAPFTEASMMMSLTK [ESR2]: the protein stability index reads like this: under setting [1], 3.48 ± 0.084; under setting [2], 3.44 ± 0.18.

The sequence TVRAMTHVINQGMAMYWGTSRWSS [KCNAB2] yielded a protein stability index under setting [1] of 2.91 ± 0.42 and a protein stability index under setting [2] of 2.75 ± 0.51.

ASEAFHWDERGRAAAYSPSEALLY [ANKRD9]: the protein stability index under setting [1] is 3.37 ± 0.21 and the protein stability index under setting [2] was found to be 3.4 ± 0.4.

Take QGIFVEKYDPTIEDSYRKQVEVDA [RAP1B]: the protein stability index was 4.72 ± 0.11 under setting [1] and 4.44 ± 0.12 under setting [2].

On to NLLSPLLTGTESPFDLEQQWQDLM [NFE2L1], for which the protein stability index under setting [1] turned out to be 3.12 ± 0.21 and the protein stability index under setting [2] worked out at 3.17 ± 0.041.

Turning to ESQLPEEWENNRESLIVFMEQVHR [CPXM2], the protein stability index stood at 3.79 ± 0.33 under setting [1] and 3.82 ± 0.49 under setting [2].

With YETESETESEIESETDFETEPETA [GNAS], the protein stability index was 5.2 ± 0.17 under setting [1] and 5.22 ± 0.15 under setting [2].

In the case of AEHQFSFMEKRNQWLVSQLSAASP [TRAF3IP2], the protein stability index was 3.02 ± 0.39 under setting [1] and 3.23 ± 0.37 under setting [2].

As for SQKATRECEKSALTPGFSDNAIML [FAN1], the protein stability index under setting [1] was 3.85 ± 0.22 and the protein stability index under setting [2] stood at 3.98 ± 0.17.

GPSHPDTSYYIRYRGAVYADSGNF [FEM1C]: the protein stability index worked out at 2.11 ± 0.45 under setting [1] and 2.54 ± 0.35 under setting [2].

Consider ELEKLAEKNIILEEKIQVLQQQNE [MTUS2], for which the protein stability index reads like this: under setting [1], 4.63 ± 0.32; under setting [2], 4.53 ± 0.22.

Turning to SENIKLREENEKLRLENSSLFSQA [CCDC89], the protein stability index worked out at 4.65 ± 0.08 under setting [1] and 4.58 ± 0.2 under setting [2].

On to TSTRYEQPKCDNTARAHPAKARDL [SMOC2], for which the protein stability index is, setting by setting: under setting [1], 4.85 ± 0.19; under setting [2], 5.17 ± 0.27.

On to ATKPSHWCSVAYWEHRTRVGRLYA [SMAD6], for which the protein stability index was found to be 2.62 ± 0.55 under setting [1] and 1.91 ± 0.17 under setting [2].

As to MADGNEDLRADDLPGPAFESYESM [KLHDC2], the protein stability index is, setting by setting: under setting [1], 5.41 ± 0.23; under setting [2], 5.26 ± 0.26.

For IFFDDLDSPSKEEVFRFVQSCARA [CPOX], the protein stability index reads like this: under setting [1], 2.45 ± 0.38; under setting [2], 2.69 ± 0.65.

For the sequence LSSNREAHQHRDKMQQSKNQVVSS [CSNK1G3], the protein stability index is 4.72 ± 0.21 under setting [1] and 4.81 ± 0.37 under setting [2].

PEGSLSQTMAGSSPNTPQPVPEQS [FAM104A]: the protein stability index reads like this: under setting [1], 5.47 ± 0.14; under setting [2], 5.45 ± 0.12.

RERLGEIHTLPLPASLKAYLLYQ [SPSB1] came in with a protein stability index under setting [3] of 2.3 ± 0.32 and a protein stability index under setting [4] of 2.26 ± 0.27.

Consider FARVKKGADGVMRTMAPEKLLKSM [SNAP91], for which the protein stability index runs as follows: under setting [1], 2.7 ± 0.18; under setting [2], 3.05 ± 0.42.

Turning to TDVRGLEEFLSAMQSARGPTPSSP [PLEKHN1], the protein stability index is 4.12 ± 0.16 under setting [1] and 4.14 ± 0.38 under setting [2].

As to PSGFLQISDALIRRVHLTEDQWGK [TRIM9], the protein stability index reads like this: under setting [1], 2.84 ± 0.25; under setting [2], 2.59 ± 0.24.

For the sequence SDDAAAPALETQPQGDEEDIASRY [SMOC2], the protein stability index was found to be 5.62 ± 0.18 under setting [1] and 5.47 ± 0.11 under setting [2].

Turning to ISNVCEEYIVKKLSRQEFLGMVGL [SLC35F2], the protein stability index reads like this: under setting [1], 2.32 ± 0.17; under setting [2], 2.35 ± 0.13.

With NMHLNLRPFDCPVCNKKFKMKHHL [ZBTB22], the protein stability index is, setting by setting: under setting [1], 2.4 ± 0.2; under setting [2], 2.81 ± 0.35.

Take DGEILFSLLQKVSPVAHKHLSRQK [TBC1D10A]: the protein stability index is, setting by setting: under setting [1], 2.36 ± 0.11; under setting [2], 2.48 ± 0.37.

Consider QTLQALNFCHIHNCIHRDIKPENI [CDKL4], for which the protein stability index turned out to be 2.47 ± 0.28 under setting [1] and 2.34 ± 0.26 under setting [2].

As for YGSFHQQYWLDGKIIAVGVIDILP [ATE1], the protein stability index reads like this: under setting [1], 3.36 ± 0.39; under setting [2], 3.16 ± 0.67.

In the case of QKHYVYGPLPQSFDKEWVAKQTKR [COX4I1], the protein stability index reads like this: under setting [1], 3.55 ± 0.41; under setting [2], 3.7 ± 0.28.

In turn, VELIPEKKGLFLKHVEYEVSSQRF [SNX8] gave a protein stability index under setting [1] of 2.31 ± 0.27 and a protein stability index under setting [2] of 2.46 ± 0.19.
